# Results from the RNAGym collection of RNA variant scans (doi:10.7554/elife.90254).
# B1: OR4K15 (parent)
# chain: GUUAACGGUCAUAGGCCAUGGAAACUAGGAGCACCAUUUCGCUGCCAGUGAAGAAAUGAACAAAGAAAAUCUGGGCCAGGCAGGCAUCAAAAGAAAUAGUCUUGCGCUCAACCAGAAAGUCUGUAAUCAUUUUAAGGGUA
# Variants of: B1
# Assay: self-cleavage, relative activity (ratio to wild type); higher = more cleavage; in vitro, sequencing; the parent is a self-cleaving ribozyme
row,Variant,self-cleavage
1,A5G A11U,0.86
2,A47U A82G,0.21
3,C34A A60G,1.39
4,G41C U122A,1.57
5,U2C U9A,0.57
6,G15U A78G,0.14
7,A69G U131C,0.55
8,U43C A91U,1.88
9,A47G A116C,0.03
10,A89C A96G,2.38
11,A90G A117G,0.83
12,A13C A23G,1.36
13,U43C A89C,1.36
14,A59G G75A,0.22
15,A11G A33U,0.86
16,A68G A126U,0.66
17,C81A A86G,0.16
18,A89C,1.54
19,U19G C105G,0.05
20,A64U G79U,0.17
21,G50A U108A,0.01
22,U43A U102A,0.78
23,U72A C76U,0.28
24,U19A U26C,2.12

row,Variant,self-cleavage
1,U43C A90U,1.83
2,A68G U122A,0.93
3,A13G A114G,0.31
4,U9A A69G,1.27
5,A54G A62G,0.92
6,A90U G106A,0
7,A56G U57A,1.53
8,A23G A64G,0.58
9,U87C U131C,1.07
10,U97A U127C,1.36
11,A67G A89C,1.63
12,U12C G99A,0.97
13,A11G G106A,0.06
14,A27U A92G,1.83
15,U108C U130A,0
16,A111U A126C,0.06
17,A18U G48U,1.24
18,U87G A125G,0.07
19,C17U U37C,1
20,A118G A140U,1.28
21,U2A A95U,0.86
22,A18G U130G,1.61
23,A60G A117G,1.55
24,A22U G138U,2.01

row,Variant,self-cleavage
1,A68G A86U,1.51
2,A68G A86G,1.41
3,A5G A94G,1
4,A82G A118C,0.28
5,U37C A78C,0.64
6,A95G U130C,1.89
7,C109A U120C,0.36
8,U37C U39A,1.55
9,A36G U49A,1.26
10,A59G A140G,1.25
11,A67G A86G,1.22
12,A55G G115U,0.03
13,G65A U132G,0.82
14,U39A A96U,1.71
15,A62G U120C,1.07
16,U103C A135G,0.95
17,U2C A66G,1.45
18,A36G U72C,0.14
19,A62G G80A,0.35
20,U57C A68G,0.95
21,A23C G83A,2.28
22,U2C A24U,1.45
23,A78G U102C,0.31
24,A86G A135U,2.39

row,Variant,self-cleavage
1,A23G C46U,1.59
2,A30G A116C,0.03
3,U103C U131C,0.49
4,U108C A129G,0.01
5,A94G U127A,2.55
6,A51G G83A,1.42
7,G48A U108A,0.01
8,A5G A96G,1.21
9,A5G G7A,0.91
10,U103C A125G,0.69
11,A52G U102C,2.18
12,U122C U127C,0.25
13,G14U A126G,1.1
14,U130C A135U,0.65
15,A68U G75C,0.22
16,A36C U87C,1.04
17,U2C C42U,1.46
18,A13G A63G,0.97
19,U70A U139A,0.23
20,A5G A52G,1.07
21,A24C A64G,1.74
22,A117G A118G,0.59
23,U43A A67G,1.88
24,A91G A92G,0.51

row,Variant,self-cleavage
1,A66G A89U,1.97
2,G73U A92G,0.16
3,U12A A56G,1.58
4,U38C C113U,0.14
5,G41A A56G,2.07
6,U72G U120C,0.13
7,A64C U103A,0.14
8,A5G A54G,1.04
9,G20U U72C,0.14
10,A22G A89C,1.28
11,U9G,0.92
12,U12C A89U,1.82
13,A95G A126U,1.42
14,A23C U130C,0.85
15,C81A A90G,0.07
16,U2C A78G,0.21
17,A64G A110G,0.22
18,G1C A91G,0.65
19,A56G G79A,0.1
20,U97C A116G,0.77
21,U37A U108C,0
22,A114G A135U,0.15
23,U37C A111U,0.15
24,U43A A86U,1.7

row,Variant,self-cleavage
1,C6U U132A,0.56
2,C109U U130A,0.25
3,U87C U130G,0.15
4,A63G G79A,0.11
5,G7A G44U,1.28
6,U39C C77U,1.75
7,U87C,0.94
8,A69G A86G,1.24
9,A5G A86U,1.27
10,U38C G137A,0.9
11,U38G A47G,1.78
12,U57A U102C,0.78
13,G73A U108C,0.01
14,U9A A118G,0.9
15,C6A U49C,0.74
16,G14A A33G,0.87
17,A47U G106A,0.01
18,A60U U127A,2.36
19,A91G A117U,0.69
20,C10A U124C,0.79
21,A24G A56G,1.25
22,U100C U132G,2.82
23,A67G A96U,1.03
24,A90U G99A,0.52

row,Variant,self-cleavage
1,A68G U108A,0.04
2,U39C U120A,2.52
3,U39C A91G,1.4
4,A91U A129G,1.13
5,U57C G75C,0.17
6,G74A A82G,0.26
7,G14A U127C,0.28
8,C34A U122C,0.77
9,A36U U49C,2.04
10,A51C A67G,0.66
11,A78G A96U,0.4
12,A69C A117U,0.21
13,C109G,0.02
14,A96G U120A,2.74
15,A90G U130C,0.87
16,A4G U100C,1.42
17,U102C A118U,1.08
18,A64G A90G,1.13
19,A96C A140U,1.14
20,U37C U102A,1.05
21,A33G A56C,0.41
22,A59G U133A,1.28
23,U2A A18U,1.37
